Laboratory results as given in the nanobody polyreactivity screen of Harvey et al. (2022).

Experiment: yeast display, Sf9 membrane polyspecificity reagent, FACS + sequencing; frameworks hold sequencing errors
Method in brief: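 Genes from sorted yeast were amplified by colony PCR, read by MiSeq 2 × 250 sequencing and filtered on CDR length. These cells carried a synthetic nanobody library in Saccharomyces cerevisiae BJ5465 and were sorted by FACS into low and high (top ~1%) gates on anti-HA and streptavidin fluorescence. Polyreactivity is labelled according to the gate of origin.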

Sequence | polyreactivity (PSR sort gate)
QVQLVESGGGLVQAGGSLRLSCAASGRTFQTNDMGLYRKAPGKERELVAAISRRGGSTYYADSVKGRFTISRDNAKNTVYLQMNSLKPEDTAVYYCAATRLSRYDYWGQGTQVTVSS | low polyreactivity
QVQLVESGGGLVQAGGSLRLSCAASGRTFQVNAMGWYRQAPGKERELVAAISASDGSTYADSVKGRFTISRDNAKNTVYLQMNSLKPEDTAVYYCNKAAYGGHRTSEQVGWVYLYDYWGQGTQVTVSS | low polyreactivity
QVQLVESGGGLVQAGGSLRLSCAASGRTFQVNSMGWYRQAPGKERELVAALTKRGGSTSYADSVKGRFTFSRDNANNTFYLQMNSLIPEDTAVYYCNVDYWGQGTQVTLSS | low polyreactivity
QVQLVESGGGLVQAGGSLRLSCAASGRTFQVNTMGWYRQAPGKERELVAAISSAGRTYYADSVKGRFTISRDNAQNTVYLQMNSLKPEDTAVYYCAAAWSYSYWKARYGYWGQGTQVTVSS | high polyreactivity
QVQLVESGGGLVQAGGSLRLSCAASGRTFQVYTMGWYRQAPGKERELVAAISRSGGSTYYADSVKGRFTISRDNAKNTVYLQMNSLKPEDTAVYYCAAVPGWLTSRYYYWGQGTQVTVSS | high polyreactivity
QVQLVESGGGLVQAGGSLRLSCAASGRTFQWYAMGWYRQAPGKERELVAAISWGGGRTYYADSVKGRFTISRDNAKNTVYLQMNSLKPEDTAVYYCAASYRKLPDKKRYGYWGQGTQVTVSS | high polyreactivity
QVQLVESGGGLVQAGGSLRLSCAASGRTFQWYAMGWYRQAPGKERELVAAISYNGDSTYYADSVKGRFTISRDNAKNTVYLQMNSLKPEDTAVYYCAATPYPYYGYDYWGQGTQVTVSS | high polyreactivity
QVQLVESGGGLVQAGGSLRLSCAASGRTFQYNAMGWYRQAPGKERELVAVISRGGRTNYADSVKGRFTISRDNAKNTVYLQMNSLKPEDTAVYYCAADWYTPQGVGLDYWGQGTQVTVSS | low polyreactivity
QVQLVESGGGLVQAGGSLRLSCAASGRTFRAYALGWYRQAPGKERELVAAITSGGSTKYADSVKGRFTISRDNAKNTVYLQMNSLKPEDTAVYYCNARVRVRLGRNWSSYYYWGQGTQVTVSS | high polyreactivity
QVQLVESGGGLVQAGGSLRLSCAASGRTFRAYVMGWYRQAPGKERELVAAISGRGGSTYYADSVKGRFTSSRDNAKNTVYLQMNSLKPEDTAVYYCNAVQLSQRPHDYWGQGTQVTVSS | high polyreactivity
QVQLVESGGGLVQAGGSLRLSCAASGRTFRENAMGSSRPAPGKERELVAAIRRSGGRTYYADSVKGRFTISRDNAKNTVYLQMHSLKPEDTAVSDCIAVADGYAFRRPYVTYYYWGQGTQVTVSS | low polyreactivity
QVQLVESGGGLVQAGGSLRLSCAASGRTFRENAMGWYRPAPGKERELVAAISWRAGSTYYADSVKGRFTISRDNAKNTVYLQMNSLKPEDTAVYYCAAKYTVSFYLWGTFNYWGQGTQVTVSS | high polyreactivity
QVQLVESGGGLVQAGGSLRLSCAASGRTFRFNAMGWYRQAPGKERELVAAISFRGGSTYYADSVKGRFTISRDNAKNTVYLQMNSLKPEHTAVYYCAARARTGTYRDMYYWGQGTQVTVSS | high polyreactivity
QVQLVESGGGLVQAGGSLRLSCAASGRTFRFYAMGWSRQAPGKERELGAAITGSGGSTYYADSVKGRFTISRDNAKNTVYLQMNCLKPEDTAVYYCAASRWREYHASKMDYWGQGTQVTVSS | low polyreactivity
QVQLVESGGGLVQAGGSLRLSCAASGRTFRGNVMGWYRQAPGKEREFVAAITKSDGSTYYADSVKGRFTISRDIAKNTVYLQMNSLNPEDTAVDYCAARTARTGWPWFRFDYWGQGTQVTVSS | low polyreactivity
QVQLVESGGGLVQAGGSLRLSCAASGRTFRGNVMGWYRQATGKEREFVAAITRSGSNTYYADSVKGRFTISRDYAKTTVYLQMNSLKPEDTAVYDCAKSVLLGYKRHDSWGQGTQVTVSS | high polyreactivity
QVQLVESGGGLVQAGGSLRLSCAASGRTFRGYVMGWYRQAPGKERELVAAISKSGGSTYYADSVKGRFTISRDIAKNTVYLQMNSLKPEDTAVYYCNALPRTQYDYWGQGTQVTVSS | low polyreactivity
QVQLVESGGGLVQAGGSLRLSCAASGRTFRHYAMAWYRQAPGKERELVASIRWNGASTNYADSVKGRFTISRDNAKNTVYLQMNSLKPEDTAVYYCNARYLFYSGYVYWGQGTQVTVSS | high polyreactivity
QVQLVESGGGLVQAGGSLRLSCAASGRTFRINAMGCYRQAPGKERELVAAITSGGRTNYADSVKGRFTISRDNAKNTVYLQMNSLKPEDTAVYYCAAERTPSYRAYDYWGQGTQVTVSS | low polyreactivity
QVQLVESGGGLVQAGGSLRLSCAASGRTFRIYAMGWYRHAPRKERELVAAIRWSGGTTYYADSVKGRFSISRDNAKNTVYLQMTSLKPEDTAVYYCAADSTNRYDYCGQGTQVTVSS | high polyreactivity
QVQLVESGGGLVQAGGSLRLSCAASGRTFRIYAMGWYRQAPGKEREFVAAITWSGGRTYYADSVKGRFTISRDNAKNTVYLQMNSLKPEDTAVYYCAADPTYLRTLRFGSYDYWGQGNQVTVSS | high polyreactivity

Sequence | polyreactivity (PSR sort gate)
QVQLVESGGGLVQAGGSLRLSCAASGRTFRIYAMGWYRQAPGKERELVAAINSGGTTNYADSVKGRFTISRDNAKNTVYLQMISLKPEDTAVYYCAVRYWKTLSHFSYDYWGQGTQVTVSS | low polyreactivity
QVQLVESGGGLVQAGGSLRLSCAASGRTFRIYAMGWYRQAPGKERELVAAISARGGSTYYADSVKGRFTISRDNAKNTVYLQMNSLKPEDTAVYYCAAEKTRRVDYWGQGTQVTVSS | high polyreactivity
QVQLVESGGGLVQAGGSLRLSCAASGRTFRIYAVGWYIQAPGKERELVARITWSGGRTYYADSVKGRFTISRDNAKNTVYLQMNSLKPEDTAVYYCNAGGSWEFDYWGQGTQVTVSS | low polyreactivity
QVQLVESGGGLVQAGGSLRLSCAASGRTFRKYAMGWYRQAPGKERELVAAISQRGGTTYYADSVKGRFTISRDNAKNTVYLQINSLKPEDTAVYYCNVAWVGVSLVYGPFEYDYWGQGTQVTVSS | high polyreactivity
QVQLVESGGGLVQAGGSLRLSCAASGRTFRKYAMGWYRQAPGKERELVAAISWSGGSTYYANSVKGRFTISRDYAKNTVYLQMNILKPEDTAVYYCAAVPVHTGSLYWGFTTGYDYWGQGTQVTVSS | low polyreactivity
QVQLVESGGGLVQAGGSLRLSCAASGRTFRKYAMGWYRQAPGKERELVAAISWSGGSTYYANSVKGRFTISRVNAKNTVYLQMNSLKPEDTAVYYCAAVPVDTGSLYWGFTTGYDYWGQGTQVTVSS | low polyreactivity
QVQLVESGGGLVQAGGSLRLSCAASGRTFRKYTMGWYRQAPGKEREFVAAITYSGGSTYYADSVKGRFTISRDNAKNTGYLQMNSLKPEDTAVSYCFTRGGYYLYYSYYYWGQGTQVTVSS | high polyreactivity
QVQLVESGGGLVQAGGSLRLSCAASGRTFRLYALGWYRQAPGKERELVAAIRSSGGRTYYADSVKGRFTISRDNAKKTVYLQINSLKPEDTAVYYCATTSGLIGYYWKYNYWGQGTQVTVSS | high polyreactivity
QVQLVESGGGLVQAGGSLRLSCAASGRTFRLYAMGWSRPAPGKERELVAAISSGGSTYYADSVKGRFTISRDNAKNTVYLQMNSLKPEDTAVYYCFAWVYQFGYWGQGTQVTVSS | low polyreactivity
QVQLVESGGGLVQAGGSLRLSCAASGRTFRLYAMGWYRQAPGKERELVADITTGGGSTYYADSVKGRFTISRDNAKNTVYLQMNSLKPEDTAVYYCAAEQDTVWFLWIVDYWGQGTQVTVSS | low polyreactivity
QVQLVESGGGLVQAGGSLRLSCAASGRTFRNNAMGWYRQAPGKERELDAAIKGSGGSTYYADSVKGRFTISRDNAKNTVYLQMNSLKPEDTAVYYCAKAVVPWGPNFRPNHTRGYYWGQGTQATVSS | low polyreactivity
QVQLVESGGGLVQAGGSLRLSCAASGRTFRNYAMGWYRQAPGKEREFVAAITGRGGSTYYADSVKGRFTISRDNAKNTVYLQMNSLKPEDTAVYYCAAVSGRTGQRTYYPYYYWGQGTQVTVSS | high polyreactivity
QVQLVESGGGLVQAGGSLRLSCAASGRTFRPNAMGWYRQAPGNERELVASITRRGGTTYYADSVKGGFTISRDNAKNTVYLHMNSLKPEDTAVYYCNAPPGYSSTRNGYWGQGTQVTVSS | high polyreactivity
QVQLVESGGGLVQAGGSLRLSCAASGRTFRPYAMGWYRQAPGKEMELVAAIDSSGTSTYYADSVKGRFTISRDTAKNTVYLQMNSLKPEDTAVYYCAKAWPDHWYSRYDYWGQGTQLTVSS | low polyreactivity
QVQLVESGGGLVQAGGSLRLSCAASGRTFRPYAMGWYRQAPGKERDLVAAIDSSGTSTYYADSVKGRFTISRDNAKKTVYLKMNSLKPEDTAVYYCAKAWPDHWYSRYDYWGQGTQVTVSS | low polyreactivity
QVQLVESGGGLVQAGGSLRLSCAASGRTFRPYAMGWYRQAPGKERELVAAISSRGSSTYYADSVKGRFTISRDNAKNTVYLQMNSLKPEDTAFYYCAAEGSVGLYGLIMHYWGQGTQVTVSS | high polyreactivity
QVQLVESGGGLVQAGGSLRLSCAASGRTFRPYAMGWYRQAPGKERELVAAISYRGGITNYADSVKGRFTISRDNAKNTVYLQMNSLKPEDTAVYYCNRYAIWVSRFSDLDYWGQGTQVTVSS | low polyreactivity
QVQLVESGGGLVQAGGSLRLSCAASGRTFRQYAMGWYRQAPGKERELVAAIRTNGGRTYYADSVKGRFTISRDNAKNTVYLQMNSLKPEDTAVYYCAVYDVVQGVLFDYWGQGTQVTVSS | high polyreactivity
QVQLVESGGGLVQAGGSLRLSCAASGRTFRRNVMGWYRQAPGKERELVAAISTRGGDTYYADSVKGRFTISRDNAKNTVYLQMNSLKPEDTAVYYCAAEYTYGYDYWGQGTQVTVSS | high polyreactivity
QVQLVESGGGLVQAGGSLRLSCAASGRTFRRYAMGLYRQAPGKERELVASISTSGGSTYADSVKGRFTISRDNAKNTVYLQMNSLKPEDTAVYYCAVRSPRYVRNGDYWGQGTQVTVSS | high polyreactivity
